In PMC2865030:

Columns and labels:
Assay in all cases: ITC
[1] = molecular target: C-terminal domain of yeast Hsp90 (yeast)
[2] = molecular target: yeast Hsp90 (wild type, His-tagged) (yeast) (UniProt P02829)
[3] = molecular target: yeast Hsp90 M705V (His-tagged) (yeast) (UniProt P02829)

B1: Tah1 (TPR-containing protein associated with Hsp90) (natural protein)
chain: MSQFEKQKEQGNSLFKQGLYREAVHCYDQLITAQPQNPVGYSNKAMALIKLGEYTQAIQMCQQGLRYTSTAEHVAIRSKLQYRLELAQGAVGSVQIPVVEVDELPEGYDRS
- Kd [1]: 320 nM
- stoichiometry N [1]: 0.93
- Kd [2]: 780 nM
- stoichiometry N [2]: 1.1
- Kd [3]: 13000 nM
- stoichiometry N [3]: 0.83
